Measured values: publication PMC7155059, “Kinetic characterisation of Erv1, a key component for protein import and folding in yeast mitochondria” (The Febs Journal, 2019)

Substrate: OC(CS)C(O)CS
Test: oxygen consumption, Clark-type electrode
Format: biochemical, Saccharomyces cerevisiae
Details: electron donor, co-substrate O2 (air, ~250 μM), 1 μM Erv1, SOD1 10 units/mL, 50 mM Tris/HCl, 150 mM NaCl, 1 mM EDTA, pH 7.4, 25 °C

B1: Erv1 (yeast Erv1) (Saccharomyces cerevisiae S288C) (protein)
chain: MKAIDKMTDNPPQEGLSGRKIIYDEDGKPCRSCNTLLDFQYVTGKISNGLKNLSSNGKLAGTGALTGEASELMPGSRTYRKVDPPDVEQLGRSSWTLLHSVAASYPAQPTDQQKGEMKQFLNIFSHIYPCNWCAKDFEKYIRENAPQVESREELGRWMCEAHNKVNKKLRKPKFDCNFWEKRWKDGWDE
notes: WT, ERV1 gene in pET-24a(+), E. coli Rosetta-gami 2, Ni-NTA then size exclusion
Protein B1 has a Km of 1500 ± 100 µM and a kcat of 1.28 ± 0.03 s⁻¹.
